Holding throughout (conditions): both partners purified
For one assay, the target named is T1, G3BP2 NTF2 domain (human, UniProt Q9UN86 11-133).
T1 sequence (looked up): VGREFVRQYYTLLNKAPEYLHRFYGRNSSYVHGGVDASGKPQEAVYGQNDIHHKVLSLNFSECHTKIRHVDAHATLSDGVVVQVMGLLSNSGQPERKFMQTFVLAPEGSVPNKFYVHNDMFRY

Another assay has as its target Ezrin FERM domain (human, UniProt P15311 2-296).
A further assay concerns the target T2, Radixin FERM domain (human, UniProt P35241 5-295).
T2 construct: also called RDX

Chain of Ezrin FERM domain (P15311 2-296): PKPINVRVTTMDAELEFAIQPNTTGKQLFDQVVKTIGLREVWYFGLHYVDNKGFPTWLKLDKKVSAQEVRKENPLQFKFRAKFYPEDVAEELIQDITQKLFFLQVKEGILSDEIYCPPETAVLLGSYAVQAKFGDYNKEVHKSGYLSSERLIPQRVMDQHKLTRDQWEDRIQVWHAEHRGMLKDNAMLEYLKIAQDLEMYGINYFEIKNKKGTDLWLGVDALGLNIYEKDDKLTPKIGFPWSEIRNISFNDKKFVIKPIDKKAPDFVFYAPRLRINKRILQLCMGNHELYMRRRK
T2 sequence (P35241 5-295): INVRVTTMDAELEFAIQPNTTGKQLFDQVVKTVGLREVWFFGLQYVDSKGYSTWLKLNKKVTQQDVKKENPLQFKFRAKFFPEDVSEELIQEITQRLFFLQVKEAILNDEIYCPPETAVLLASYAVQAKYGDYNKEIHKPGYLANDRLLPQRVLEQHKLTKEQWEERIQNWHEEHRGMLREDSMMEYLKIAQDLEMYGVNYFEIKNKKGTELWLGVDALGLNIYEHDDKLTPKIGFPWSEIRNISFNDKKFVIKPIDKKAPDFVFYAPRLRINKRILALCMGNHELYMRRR

The IC50 is the concentration needed to halve the response being measured. As usually defined, the Ki is the equilibrium dissociation constant of an inhibitor or competing ligand from its target. In the assay with G3BP2 NTF2 domain, QGKPLEFGATSAALQY [NSP3 peptide 956-971 (Sars-CoV2)] showed an IC50 of 100 µM and a Ki of 35 µM.

For the molecule VETSNSFDVLKSEDAQY [NSP3 peptide 2019-2034 (Sars-CoV2)], the IC50 with Ezrin FERM domain and with Radixin FERM domain was 1530 µM each time. The same molecule showed a Ki in the assay with Ezrin FERM domain of 37.6 µM.
